The record followed here is US12679878B2, “CRF2 receptor agonists and their use in therapy” (SANOFI, priority 2020, dated 2026).

Starred links: 1 amine or outer side, 2 acyl side, 3 side chain; linkers in the order of their positions; H or OH if unused. Non-standard residues stand in square brackets, D forms with d. Groups on a side chain read outwards from the residue. No end group written: not given here. *: point of attachment. C18 diacid = O=C(O)CCCCCCCCCCCCCCCCC(=O)*; γGlu = O=C(O)[C@H](CCC(=O)[*:2])N[*:1]; AEEA = NCCOCCOCC(=O)O; Aib = CC(C)(N)C(=O)O

The target of this test is human corticotropin-releasing factor 2α (CRF2 α receptor) (human), Q13324. The test is described as follows: cell-based or functional assay.
Sequence of human corticotropin-releasing factor 2α (CRF2 α receptor) (human), Q13324 (Q13324 20-411): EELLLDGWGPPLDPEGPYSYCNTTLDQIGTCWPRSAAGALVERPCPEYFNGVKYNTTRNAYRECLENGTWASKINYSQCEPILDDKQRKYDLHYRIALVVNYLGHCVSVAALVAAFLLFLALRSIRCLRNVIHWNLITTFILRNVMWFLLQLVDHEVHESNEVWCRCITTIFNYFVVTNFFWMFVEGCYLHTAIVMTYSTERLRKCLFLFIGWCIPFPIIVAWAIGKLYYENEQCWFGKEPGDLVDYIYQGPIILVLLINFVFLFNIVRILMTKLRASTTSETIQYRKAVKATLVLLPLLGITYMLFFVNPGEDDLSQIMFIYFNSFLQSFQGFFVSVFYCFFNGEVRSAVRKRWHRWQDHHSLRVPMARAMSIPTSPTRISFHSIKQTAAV

B1: SEQ ID NO: 130 (peptide)
peptide: IVLSLD[dV]PIKLK([AEEA-AEEA-γGlu-C18 diacid])QILLKQERQK[Aib]QREQAEKNKQILAQV-NH2
modifications: N-terminus assumed
SMILES: CC[C@H](C)[C@H](N)C(=O)N[C@H](C(=O)N[C@@H](CC(C)C)C(=O)N[C@@H](CO)C(=O)N[C@@H](CC(C)C)C(=O)N[C@@H](CC(=O)O)C(=O)N[C@@H](C(=O)N1CCC[C@H]1C(=O)N[C@H](C(=O)N[C@@H](CCCCN)C(=O)N[C@@H](CC(C)C)C(=O)N[C@@H](CCCCNC(=O)COCCOCCNC(=O)COCCOCCNC(=O)CC[C@H](NC(=O)CCCCCCCCCCCCCCCCC(=O)O)C(=O)O)C(=O)N[C@@H](CCC(N)=O)C(=O)N[C@H](C(=O)N[C@@H](CC(C)C)C(=O)N[C@@H](CC(C)C)C(=O)N[C@@H](CCCCN)C(=O)N[C@@H](CCC(N)=O)C(=O)N[C@@H](CCC(=O)O)C(=O)N[C@@H](CCCNC(=N)N)C(=O)N[C@@H](CCC(N)=O)C(=O)N[C@@H](CCCCN)C(=O)NC(C)(C)C(=O)N[C@@H](CCC(N)=O)C(=O)N[C@@H](CCCNC(=N)N)C(=O)N[C@@H](CCC(=O)O)C(=O)N[C@@H](CCC(N)=O)C(=O)N[C@@H](C)C(=O)N[C@@H](CCC(=O)O)C(=O)N[C@@H](CCCCN)C(=O)N[C@@H](CC(N)=O)C(=O)N[C@@H](CCCCN)C(=O)N[C@@H](CCC(N)=O)C(=O)N[C@H](C(=O)N[C@@H](CC(C)C)C(=O)N[C@@H](C)C(=O)N[C@@H](CCC(N)=O)C(=O)N[C@H](C(N)=O)C(C)C)[C@@H](C)CC)[C@@H](C)CC)[C@@H](C)CC)C(C)C)C(C)C
Consider B1, for which the EC50 [nM], 0% HSA was determined as 0.05 nM and the EC50 [nM], 0.1% HSA turned out to be 2.11 nM.

B2: SEQ ID NO: 126 (peptide)
peptide: IVLSLD[dV]PIKLK([AEEA-AEEA-γGlu-C18 diacid])QILLEQAKQK[Aib]QRAQAEKNKRILERV-NH2
modifications: N-terminus assumed
SMILES: CC[C@H](C)[C@H](N)C(=O)N[C@H](C(=O)N[C@@H](CC(C)C)C(=O)N[C@@H](CO)C(=O)N[C@@H](CC(C)C)C(=O)N[C@@H](CC(=O)O)C(=O)N[C@@H](C(=O)N1CCC[C@H]1C(=O)N[C@H](C(=O)N[C@@H](CCCCN)C(=O)N[C@@H](CC(C)C)C(=O)N[C@@H](CCCCNC(=O)COCCOCCNC(=O)COCCOCCNC(=O)CC[C@H](NC(=O)CCCCCCCCCCCCCCCCC(=O)O)C(=O)O)C(=O)N[C@@H](CCC(N)=O)C(=O)N[C@H](C(=O)N[C@@H](CC(C)C)C(=O)N[C@@H](CC(C)C)C(=O)N[C@@H](CCC(=O)O)C(=O)N[C@@H](CCC(N)=O)C(=O)N[C@@H](C)C(=O)N[C@@H](CCCCN)C(=O)N[C@@H](CCC(N)=O)C(=O)N[C@@H](CCCCN)C(=O)NC(C)(C)C(=O)N[C@@H](CCC(N)=O)C(=O)N[C@@H](CCCNC(=N)N)C(=O)N[C@@H](C)C(=O)N[C@@H](CCC(N)=O)C(=O)N[C@@H](C)C(=O)N[C@@H](CCC(=O)O)C(=O)N[C@@H](CCCCN)C(=O)N[C@@H](CC(N)=O)C(=O)N[C@@H](CCCCN)C(=O)N[C@@H](CCCNC(=N)N)C(=O)N[C@H](C(=O)N[C@@H](CC(C)C)C(=O)N[C@@H](CCC(=O)O)C(=O)N[C@@H](CCCNC(=N)N)C(=O)N[C@H](C(N)=O)C(C)C)[C@@H](C)CC)[C@@H](C)CC)[C@@H](C)CC)C(C)C)C(C)C
B2 registered an EC50 [nM], 0% HSA of 0.22 nM and an EC50 [nM], 0.1% HSA of 5.59 nM.

B3: SEQ ID NO: 129 (peptide)
peptide: IVLSLD[dV]PIKLK([AEEA-AEEA-γGlu-C18 diacid])QILLEQERQK[Aib]QREQAEKNKQILAQV-NH2
modifications: N-terminus assumed
SMILES: CC[C@H](C)[C@H](N)C(=O)N[C@H](C(=O)N[C@@H](CC(C)C)C(=O)N[C@@H](CO)C(=O)N[C@@H](CC(C)C)C(=O)N[C@@H](CC(=O)O)C(=O)N[C@@H](C(=O)N1CCC[C@H]1C(=O)N[C@H](C(=O)N[C@@H](CCCCN)C(=O)N[C@@H](CC(C)C)C(=O)N[C@@H](CCCCNC(=O)COCCOCCNC(=O)COCCOCCNC(=O)CC[C@H](NC(=O)CCCCCCCCCCCCCCCCC(=O)O)C(=O)O)C(=O)N[C@@H](CCC(N)=O)C(=O)N[C@H](C(=O)N[C@@H](CC(C)C)C(=O)N[C@@H](CC(C)C)C(=O)N[C@@H](CCC(=O)O)C(=O)N[C@@H](CCC(N)=O)C(=O)N[C@@H](CCC(=O)O)C(=O)N[C@@H](CCCNC(=N)N)C(=O)N[C@@H](CCC(N)=O)C(=O)N[C@@H](CCCCN)C(=O)NC(C)(C)C(=O)N[C@@H](CCC(N)=O)C(=O)N[C@@H](CCCNC(=N)N)C(=O)N[C@@H](CCC(=O)O)C(=O)N[C@@H](CCC(N)=O)C(=O)N[C@@H](C)C(=O)N[C@@H](CCC(=O)O)C(=O)N[C@@H](CCCCN)C(=O)N[C@@H](CC(N)=O)C(=O)N[C@@H](CCCCN)C(=O)N[C@@H](CCC(N)=O)C(=O)N[C@H](C(=O)N[C@@H](CC(C)C)C(=O)N[C@@H](C)C(=O)N[C@@H](CCC(N)=O)C(=O)N[C@H](C(N)=O)C(C)C)[C@@H](C)CC)[C@@H](C)CC)[C@@H](C)CC)C(C)C)C(C)C
Consider B3, for which the EC50 [nM], 0% HSA was found to be 0.15 nM and the EC50 [nM], 0.1% HSA worked out at 3.02 nM.

B4: SEQ ID NO: 13 (peptide)
peptide: FTLSLDVPTKIK([AEEA-AEEA-γGlu-C18 diacid])QILFKQQKQKKERQQAEKNKQLLEQI-NH2
modifications: N-terminus assumed
SMILES: CC[C@H](C)[C@H](NC(=O)[C@H](CCC(N)=O)NC(=O)[C@H](CCC(=O)O)NC(=O)[C@H](CC(C)C)NC(=O)[C@H](CC(C)C)NC(=O)[C@H](CCC(N)=O)NC(=O)[C@H](CCCCN)NC(=O)[C@H](CC(N)=O)NC(=O)[C@H](CCCCN)NC(=O)[C@H](CCC(=O)O)NC(=O)[C@H](C)NC(=O)[C@H](CCC(N)=O)NC(=O)[C@H](CCC(N)=O)NC(=O)[C@H](CCCNC(=N)N)NC(=O)[C@H](CCC(=O)O)NC(=O)[C@H](CCCCN)NC(=O)[C@H](CCCCN)NC(=O)[C@H](CCC(N)=O)NC(=O)[C@H](CCCCN)NC(=O)[C@H](CCC(N)=O)NC(=O)[C@H](CCC(N)=O)NC(=O)[C@H](CCCCN)NC(=O)[C@H](Cc1ccccc1)NC(=O)[C@H](CC(C)C)NC(=O)[C@@H](NC(=O)[C@H](CCC(N)=O)NC(=O)[C@H](CCCCNC(=O)COCCOCCNC(=O)COCCOCCNC(=O)CC[C@H](NC(=O)CCCCCCCCCCCCCCCCC(=O)O)C(=O)O)NC(=O)[C@@H](NC(=O)[C@H](CCCCN)NC(=O)[C@@H](NC(=O)[C@@H]1CCCN1C(=O)[C@@H](NC(=O)[C@H](CC(=O)O)NC(=O)[C@H](CC(C)C)NC(=O)[C@H](CO)NC(=O)[C@H](CC(C)C)NC(=O)[C@@H](NC(=O)[C@@H](N)Cc1ccccc1)[C@@H](C)O)C(C)C)[C@@H](C)O)[C@@H](C)CC)[C@@H](C)CC)C(N)=O
As to B4, the EC50 [nM], 0% HSA stood at 0.98 nM and the EC50 [nM], 0.1% HSA amounted to 64.1 nM.

B5: SEQ ID NO: 128 (peptide)
peptide: IVLSLD[dV]PIKLK([AEEA-AEEA-γGlu-C18 diacid])QILLKQARQK[Aib]QREQAEKNKRILERV-NH2
modifications: N-terminus assumed
SMILES: CC[C@H](C)[C@H](N)C(=O)N[C@H](C(=O)N[C@@H](CC(C)C)C(=O)N[C@@H](CO)C(=O)N[C@@H](CC(C)C)C(=O)N[C@@H](CC(=O)O)C(=O)N[C@@H](C(=O)N1CCC[C@H]1C(=O)N[C@H](C(=O)N[C@@H](CCCCN)C(=O)N[C@@H](CC(C)C)C(=O)N[C@@H](CCCCNC(=O)COCCOCCNC(=O)COCCOCCNC(=O)CC[C@H](NC(=O)CCCCCCCCCCCCCCCCC(=O)O)C(=O)O)C(=O)N[C@@H](CCC(N)=O)C(=O)N[C@H](C(=O)N[C@@H](CC(C)C)C(=O)N[C@@H](CC(C)C)C(=O)N[C@@H](CCCCN)C(=O)N[C@@H](CCC(N)=O)C(=O)N[C@@H](C)C(=O)N[C@@H](CCCNC(=N)N)C(=O)N[C@@H](CCC(N)=O)C(=O)N[C@@H](CCCCN)C(=O)NC(C)(C)C(=O)N[C@@H](CCC(N)=O)C(=O)N[C@@H](CCCNC(=N)N)C(=O)N[C@@H](CCC(=O)O)C(=O)N[C@@H](CCC(N)=O)C(=O)N[C@@H](C)C(=O)N[C@@H](CCC(=O)O)C(=O)N[C@@H](CCCCN)C(=O)N[C@@H](CC(N)=O)C(=O)N[C@@H](CCCCN)C(=O)N[C@@H](CCCNC(=N)N)C(=O)N[C@H](C(=O)N[C@@H](CC(C)C)C(=O)N[C@@H](CCC(=O)O)C(=O)N[C@@H](CCCNC(=N)N)C(=O)N[C@H](C(N)=O)C(C)C)[C@@H](C)CC)[C@@H](C)CC)[C@@H](C)CC)C(C)C)C(C)C
In turn, B5 had an EC50 [nM], 0% HSA of 0.64 nM and an EC50 [nM], 0.1% HSA of 20.1 nM.

B6: SEQ ID NO: 127 (peptide)
peptide: IVLSLD[dV]PIKLK([AEEA-AEEA-γGlu-C18 diacid])QILLEQAKQK[Aib]QREQAEKNKRILERV-NH2
modifications: N-terminus assumed
SMILES: CC[C@H](C)[C@H](N)C(=O)N[C@H](C(=O)N[C@@H](CC(C)C)C(=O)N[C@@H](CO)C(=O)N[C@@H](CC(C)C)C(=O)N[C@@H](CC(=O)O)C(=O)N[C@@H](C(=O)N1CCC[C@H]1C(=O)N[C@H](C(=O)N[C@@H](CCCCN)C(=O)N[C@@H](CC(C)C)C(=O)N[C@@H](CCCCNC(=O)COCCOCCNC(=O)COCCOCCNC(=O)CC[C@H](NC(=O)CCCCCCCCCCCCCCCCC(=O)O)C(=O)O)C(=O)N[C@@H](CCC(N)=O)C(=O)N[C@H](C(=O)N[C@@H](CC(C)C)C(=O)N[C@@H](CC(C)C)C(=O)N[C@@H](CCC(=O)O)C(=O)N[C@@H](CCC(N)=O)C(=O)N[C@@H](C)C(=O)N[C@@H](CCCCN)C(=O)N[C@@H](CCC(N)=O)C(=O)N[C@@H](CCCCN)C(=O)NC(C)(C)C(=O)N[C@@H](CCC(N)=O)C(=O)N[C@@H](CCCNC(=N)N)C(=O)N[C@@H](CCC(=O)O)C(=O)N[C@@H](CCC(N)=O)C(=O)N[C@@H](C)C(=O)N[C@@H](CCC(=O)O)C(=O)N[C@@H](CCCCN)C(=O)N[C@@H](CC(N)=O)C(=O)N[C@@H](CCCCN)C(=O)N[C@@H](CCCNC(=N)N)C(=O)N[C@H](C(=O)N[C@@H](CC(C)C)C(=O)N[C@@H](CCC(=O)O)C(=O)N[C@@H](CCCNC(=N)N)C(=O)N[C@H](C(N)=O)C(C)C)[C@@H](C)CC)[C@@H](C)CC)[C@@H](C)CC)C(C)C)C(C)C
On to B6, for which the EC50 [nM], 0% HSA was 0.16 nM and the EC50 [nM], 0.1% HSA was found to be 5.14 nM.
